System: MS2 coat protein
Assay: apparent KD of MS2 coat protein; designed switch direction (-1 OFF switch, 1 ON switch): -1; higher = weaker reporter binding
Conditions: Eterna round: R98
Protocol: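 RNA-MaP: designed FMN/MS2 RNA switches (84 nt design region) are transcribed on-chip within common flanks and titrated with SNAP-549-labelled MS2 coat protein (about 1-3000 nM) in 100 mM Tris pH 7.5, 80 mM KCl, 4 mM MgCl2, without or with 200 uM FMN. Median apparent KD per design; activation ratio = KD,OFF / KD,ON.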

Sequence	apparent KD of MS2 coat protein (input ligand: FMN 200 uM)	apparent KD of MS2 coat protein (input ligand: none)
ACAUGGAAGCGAGGAUAUGCGGCGGAAACGAACGCAGAAGGCGAAAAAAAAACUCGCAAAAACAUGAGGAUCACCCAUGUAAAA [AK-NGROCr2-ExNG1-4]	0.0348 µM	0.0285 µM
AUGACAGGCAGAGCGCAACGGCGAACAUGAGGAUCACCCAUGUAGGAUAUGCUACACAAAGUGUAGCAGAAGGACAUGCGACGC [Ex NG2 #85]	0.117 µM	0.0257 µM
AUGCCGUGCAGAGCGCGACGGCGAACAUGAGGAUCACCCAUGUAGGAUAUACUACACAAAGUGUAGUAGAAGGACGUGCAACAA [Ex NG2 #97]	0.0381 µM	0.0298 µM
CUGGUGAUGUAAGGAUAUGCUGAGGAAUACUCAGCAGAAGGUACAUGAGGAUCACCCAUGUAAAUGAAAGAUAAUAAACACCAG [Excusion NG 1/16-B1]	0.0291 µM	0.0145 µM
GCGUAAUUGAUCCUAUUUACCAACAUGAGGAUCACCCAUGUGCAGGAUAUGCUAAAGAUAGAUAAGCAGAAGGGCAAAUACCGC [JR_ExcNG3_Sub003]	0.253 µM	0.067 µM
GGAUGACAAAGUCAUCCUUAACGAACAUGAGGAUCACCCAUGUAGGAUAUGCUACACAAAGUGUAGCAGAAGGACAUGUGCCUU [Mat - Exclusion NG 3 - JL Mod - D88]	0.294 µM	0.0329 µM
GGUUGUUACGCAGGAUAUUGCCAACAGGCAGUAGGAUAUCCGAAAGGAGAAGGAUUGCCAACAGGCGAGAAGGGCGGGUUAACC [pwkr exNG2 2xF7 2FMN.10.6]	0.0506 µM	0.0333 µM
GUAUGACAAAGUCAUACCGCUUUGACAUGAGGAUCACCCAUGUAGGAUAUAUUAAUCAAAGAUUAAUAGAAGGACAUGUUUCUG [Ex NG2 #68]	0.175 µM	0.0946 µM
UAUAUAAUAAGAGCUGGAAAACUCACAUGAGGAUCACCCAUGUAGGAUAUCAGCACGAUAAGUGCUGAGAAGGACAACCAGCUC [Denovo 73]	0.017 µM	0.0152 µM
